Assay results reported in the Human Domainome abundance scans (Beltran et al. 2025).
± gives the uncertainty stated by the source.

B1: SAM and SH3 domain-containing protein 1, residues 630 to 700; numbered along this chain, O94885 (parent)
chain: GRPPQPKSVEDLLDRINLKEHMPTFLFNGYEDLDTFKLLEEEDLDELNIRDPEHRAVLLTAVELLQEYDSN

Variants of: B1
Assay: abundance fitness (aPCA) (normalised: wild type 0, dead -1); higher = more abundant; growth selection in yeast, the domain comes from the species named
Settings: Homo sapiens

Compared with A56R, A56V is lower in abundance fitness: 0.191 ± 0.034 for the first, -0.493 ± 0.048 for the second.

First: A56K
Second: A56M
The abundance fitness of the first is higher: 0.265 ± 0.038 for the first, -0.213 ± 0.046 for the second.

Compared with A56Y, K19N is higher in abundance fitness: -0.605 ± 0.054 for the first, -0.211 ± 0.047 for the second.

Compared with K19I, K19T is higher in abundance fitness: -0.073 ± 0.042 for the first, 0.042 ± 0.036 for the second.

Going from D69M to D69G, the abundance fitness rises from -0.822 ± 0.079 to -0.132 ± 0.056.

Going from D69V to D69T, the abundance fitness rises from -0.971 ± 0.086 to -0.358 ± 0.045.

Compared with D43V, D43N is higher in abundance fitness: -0.456 ± 0.047 for the first, -0.058 ± 0.044 for the second.

First: D43G
Second: E53P
The abundance fitness of the first is higher: -0.444 ± 0.053 for the first, -0.924 ± 0.09 for the second.

First: E53S
Second: E53C
The abundance fitness of the first is higher: -0.126 ± 0.037 for the first, -0.23 ± 0.06 for the second.

Going from E53R to E53H, the abundance fitness rises from -0.266 ± 0.045 to -0.09 ± 0.049.

E53Y and E53I are within error of each other in abundance fitness: -0.557 ± 0.063 for the first, -0.542 ± 0.063 for the second.

Compared with M22Y, M22V is lower in abundance fitness: 0.277 ± 0.038 for the first, 0.046 ± 0.035 for the second.

First: M22D
Second: M22F
The abundance fitness of the first is lower: -0.749 ± 0.077 for the first, 0.081 ± 0.043 for the second.

First: M22L
Second: M22S
The abundance fitness of the first is higher: 0.377 ± 0.032 for the first, -0.375 ± 0.04 for the second.

First: M22E
Second: Y68Q
The abundance fitness of the first is lower: -0.213 ± 0.054 for the first, 0.254 ± 0.048 for the second.

First: Y68D
Second: Y68I
The abundance fitness of the first is higher: 0.076 ± 0.054 for the first, -0.191 ± 0.055 for the second.

G1Q and G1H are within error of each other in abundance fitness: 0.109 ± 0.16 for the first, -0.161 ± 0.12 for the second.

G1R and G1P are within error of each other in abundance fitness: -0.203 ± 0.07 for the first, -0.137 ± 0.27 for the second.

G1N and G1K are within error of each other in abundance fitness: 0.17 ± 0.082 for the first, 0.163 ± 0.096 for the second.

G1C and G1A are within error of each other in abundance fitness: -0.067 ± 0.085 for the first, -0.064 ± 0.055 for the second.

First: L38F
Second: L38S
The abundance fitness of the first is lower: -0.234 ± 0.059 for the first, -0.005 ± 0.036 for the second.

Compared with L38H, L38P is lower in abundance fitness: 0.029 ± 0.05 for the first, -0.857 ± 0.081 for the second.

Compared with L38V, Q66G is higher in abundance fitness: -0.492 ± 0.046 for the first, -0.197 ± 0.052 for the second.

First: Q66D
Second: Q66H
The abundance fitness of the first is lower: -0.49 ± 0.064 for the first, -0.035 ± 0.043 for the second.

Compared with Q66N, Q66L is lower in abundance fitness: 0.059 ± 0.038 for the first, -0.351 ± 0.038 for the second.

Compared with E67F, E67M is higher in abundance fitness: -0.609 ± 0.063 for the first, -0.342 ± 0.049 for the second.

E67L and E67P are within error of each other in abundance fitness: -0.468 ± 0.041 for the first, -0.457 ± 0.049 for the second.

Compared with E67I, E67S is higher in abundance fitness: -0.492 ± 0.057 for the first, 0.039 ± 0.037 for the second.

E67N and E67G are within error of each other in abundance fitness: -0.1 ± 0.048 for the first, -0.107 ± 0.046 for the second.

Going from L12Q to L12A, the abundance fitness falls from -0.679 ± 0.077 to -0.846 ± 0.065.

Going from L12Y to L12P, the abundance fitness falls from -0.672 ± 0.087 to -0.916 ± 0.093.

Going from L12S to F25H, the abundance fitness falls from -0.75 ± 0.057 to -0.924 ± 0.11.

F25I and F25T are within error of each other in abundance fitness: -0.687 ± 0.081 for the first, -0.59 ± 0.061 for the second.

Compared with F25N, F25Q is lower in abundance fitness: -0.612 ± 0.072 for the first, -0.778 ± 0.078 for the second.

Compared with F25S, V57D is higher in abundance fitness: -0.706 ± 0.056 for the first, 0.089 ± 0.052 for the second.

V57W and V57P are within error of each other in abundance fitness: -0.397 ± 0.061 for the first, -0.484 ± 0.055 for the second.

Compared with V57M, V57R is higher in abundance fitness: 0.067 ± 0.045 for the first, 0.418 ± 0.034 for the second.

Going from V57G to H54L, the abundance fitness falls from -0.195 ± 0.049 to -0.849 ± 0.055.

Compared with H54K, H54W is lower in abundance fitness: -0.496 ± 0.078 for the first, -0.96 ± 0.09 for the second.

Compared with H54D, L65A is lower in abundance fitness: -0.02 ± 0.044 for the first, -0.625 ± 0.065 for the second.

L65Q and L65G are within error of each other in abundance fitness: -0.707 ± 0.084 for the first, -0.808 ± 0.076 for the second.

L65K and L65F are within error of each other in abundance fitness: -0.812 ± 0.084 for the first, -0.696 ± 0.072 for the second.

Compared with L65N, K37R is higher in abundance fitness: -0.841 ± 0.082 for the first, -0.211 ± 0.046 for the second.

First: K37E
Second: D14G
The abundance fitness of the first is lower: -0.64 ± 0.097 for the first, -0.218 ± 0.055 for the second.

D14C and D14V are within error of each other in abundance fitness: -0.215 ± 0.054 for the first, -0.287 ± 0.047 for the second.

First: D14Q
Second: D14Y
The abundance fitness of the first is higher: -0.269 ± 0.07 for the first, -0.602 ± 0.069 for the second.

First: D14N
Second: F27M
The abundance fitness of the first is lower: -0.131 ± 0.048 for the first, 0.327 ± 0.041 for the second.

Going from F27L to F27C, the abundance fitness falls from 0.346 ± 0.031 to 0.272 ± 0.04.

F27R and F27T are within error of each other in abundance fitness: 0.38 ± 0.033 for the first, 0.341 ± 0.036 for the second.

Going from P6F to P6M, the abundance fitness falls from 0.085 ± 0.046 to -0.264 ± 0.07.

Going from P6H to P6I, the abundance fitness rises from -0.607 ± 0.085 to -0.151 ± 0.056.

Compared with P6W, P6Q is lower in abundance fitness: -0.092 ± 0.052 for the first, -0.726 ± 0.1 for the second.

L13M and L13E are within error of each other in abundance fitness: -0.724 ± 0.077 for the first, -0.572 ± 0.081 for the second.

Compared with L13G, L13F is higher in abundance fitness: -0.752 ± 0.072 for the first, -0.576 ± 0.071 for the second.

First: P23H
Second: P23F
The abundance fitness of the first is higher: -0.243 ± 0.052 for the first, -0.434 ± 0.057 for the second.

First: P23Q
Second: P23R
The abundance fitness of the first is higher: -0.017 ± 0.056 for the first, -0.225 ± 0.045 for the second.

Going from P23W to P23G, the abundance fitness rises from -0.103 ± 0.061 to 0.039 ± 0.043.

First: D45V
Second: D45G
The abundance fitness of the first is higher: -0.151 ± 0.041 for the first, -0.812 ± 0.077 for the second.

First: D45Q
Second: D45P
The abundance fitness of the first is higher: -0.557 ± 0.059 for the first, -0.833 ± 0.063 for the second.

Going from D45C to D45K, the abundance fitness rises from -0.416 ± 0.053 to -0.135 ± 0.048.

First: D45E
Second: F36K
The abundance fitness of the first is higher: -0.276 ± 0.06 for the first, -1.19 ± 0.14 for the second.

A61C and A61T are within error of each other in abundance fitness: -0.483 ± 0.073 for the first, -0.479 ± 0.055 for the second.

A61R and A61L are within error of each other in abundance fitness: -0.904 ± 0.07 for the first, -0.997 ± 0.071 for the second.

A61D and E20Y are within error of each other in abundance fitness: -0.787 ± 0.099 for the first, -0.84 ± 0.1 for the second.

Compared with E20M, E20F is lower in abundance fitness: -0.212 ± 0.064 for the first, -0.502 ± 0.071 for the second.

Going from E20C to E20K, the abundance fitness falls from -0.124 ± 0.063 to -0.755 ± 0.11.

First: E20W
Second: E20L
The abundance fitness of the first is lower: -0.879 ± 0.13 for the first, -0.559 ± 0.063 for the second.

Compared with E20S, L18Y is lower in abundance fitness: -0.332 ± 0.053 for the first, -0.863 ± 0.089 for the second.

L18W and L18H are within error of each other in abundance fitness: -0.853 ± 0.089 for the first, -0.714 ± 0.076 for the second.

Compared with L18R, L18N is higher in abundance fitness: -1.02 ± 0.066 for the first, -0.777 ± 0.081 for the second.

L18I and L18Q are within error of each other in abundance fitness: -0.716 ± 0.077 for the first, -0.652 ± 0.074 for the second.

Going from Q5A to Q5I, the abundance fitness rises from -0.291 ± 0.053 to -0.02 ± 0.048.

Going from Q5E to Q5G, the abundance fitness falls from -0.481 ± 0.098 to -0.694 ± 0.093.

Going from Q5L to N71P, the abundance fitness rises from -0.345 ± 0.043 to 0.005 ± 0.051.

Compared with N71M, N71W is lower in abundance fitness: -0.071 ± 0.072 for the first, -0.256 ± 0.087 for the second.

N71E and N71R are within error of each other in abundance fitness: 0.163 ± 0.074 for the first, 0.087 ± 0.052 for the second.

D32G and D32M are within error of each other in abundance fitness: -0.585 ± 0.055 for the first, -0.682 ± 0.06 for the second.

D32E and D32R are within error of each other in abundance fitness: -0.275 ± 0.055 for the first, -0.268 ± 0.038 for the second.

Going from D32V to S8G, the abundance fitness rises from -0.788 ± 0.06 to -0.536 ± 0.076.

S8F and S8L are within error of each other in abundance fitness: -0.984 ± 0.11 for the first, -0.818 ± 0.067 for the second.

S8T and S8N are within error of each other in abundance fitness: -0.244 ± 0.052 for the first, -0.305 ± 0.053 for the second.

Going from S8H to L64V, the abundance fitness rises from -0.899 ± 0.09 to -0.234 ± 0.039.

First: L64F
Second: L64A
The abundance fitness of the first is lower: -0.117 ± 0.043 for the first, 0.343 ± 0.036 for the second.

L64D showed an abundance fitness of 0.33 ± 0.041.
